Data as given in the supplement of paper PMC9732359.
± gives the uncertainty stated by the source.

Experiment: protein stability index of a GFP-peptide fusion (yeast GPS) (PSI 1-4); higher = more stable; sorted into four equal gates, so the index is relative within each strain
Procedure, shortened: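 Plasmids isolated from each sorting gate were PCR-amplified and Illumina-sequenced, and barcodes assigned the reads to strains. The gates, four of equal size, were set by GFP/Cherry fluorescence ratio on mid-log cultures in leucine-free medium. These cultures were yeast carrying a pooled library of tiled 17-residue yeast protein peptides fused downstream of GFP on a plasmid that also expresses Cherry. The protein stability index is the sum of every gate's read frequency times its gate number.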

Sequence | protein stability index (doa10∆) | protein stability index (pdr5∆) | protein stability index (san1∆) | protein stability index (ubr1∆)
DSFSGAKIYPGRGTLFV [RPL24A] | 3.13 ± 0.065 | 3.08 ± 0.067 | 2.78 ± 0.06 | 2.68 ± 0.052
DSIYTKPVKVALIFIFF [YJL039C/NUP192] | 1.69 ± 0.039 | 1.68 ± 0.033 | 1.5 ± 0.058 | 1.68 ± 0.023
DSKGSLYSVKFAPAHLG [YGL100W/SEH1] | 2.66 ± 0.11 | 3.05 ± 0.13 | 2.59 ± 0.1 | 2.81 ± 0.062
DSPFSLICQNNLNAFVD [SRP72] | 2.98 ± 0.069 | 3 ± 0.055 | 2.85 ± 0.05 | 2.92 ± 0.046
DSSAHFKGALTIKILPE [YMR129W/POM152] | 2.67 ± 0.076 | 2.62 ± 0.064 | 2.37 ± 0.058 | 2.49 ± 0.042
DSVATVIEVIETKWDDA [YJR042W/NUP85] | 2.32 ± 0.24 | 2.64 ± 0.28 | 2.16 ± 0.17 | 2.1 ± 0.27
DSVEFIFQAKRNSNPEN [RPN10] | 2.75 ± 0.087 | 2.73 ± 0.089 | 3.2 ± 0.12 | 2.69 ± 0.083
DSVLQLASFEKTTDHLF [RPO31] | 2.63 ± 0.054 | 2.64 ± 0.04 | 2.83 ± 0.06 | 2.74 ± 0.041
DTEMKMKSLLTELSNKE [YIL149C/MLP2] | 3.31 ± 0.065 | 3.44 ± 0.058 | 3.21 ± 0.045 | 3.35 ± 0.049
DTFELIKTFLVDLTSSN [YDL116W/NUP84] | 2.69 ± 0.07 | 3.19 ± 0.073 | 2.55 ± 0.08 | 3.1 ± 0.046
DTGTLDTKSVVGLVMFS [RPN2] | 2.67 ± 0.083 | 2.66 ± 0.084 | 2.91 ± 0.075 | 2.42 ± 0.069
DTKKVKESPANDQASNE [YIL149C/MLP2] | 3.17 ± 0.13 | 3.29 ± 0.1 | 3.12 ± 0.2 | 3.15 ± 0.19
DTSKALLNVSVNITKFS [SKI6] | 2.27 ± 0.08 | 2.57 ± 0.068 | 2.72 ± 0.073 | 2.42 ± 0.072
DTTVNDCLDKLLNDECT [SNF2] | 3.43 ± 0.16 | 3.46 ± 0.1 | 3.59 ± 0.075 | 3.73 ± 0.094
DVAIENNTLSRYADAGN [RRP43] | 3.36 ± 0.045 | 3.32 ± 0.048 | 3.35 ± 0.035 | 3.44 ± 0.041
DVAYLLKSESATSQYLK [YGL172W/NUP49] | 2.25 ± 0.14 | 3.21 ± 0.094 | 2.94 ± 0.1 | 3.03 ± 0.11
DVFDTLATYCPRVQGFY [GRR1] | 2.65 ± 0.075 | 2.26 ± 0.054 | 2.36 ± 0.078 | 2.6 ± 0.055
DVHLLESKVYHKLRNLA [RPN6] | 1.95 ± 0.069 | 2.33 ± 0.086 | 2.17 ± 0.14 | 2.13 ± 0.11
DVILDYQTKKFYDYIKE [REC8] | 2.4 ± 0.06 | 2.58 ± 0.052 | 2.55 ± 0.071 | 2.92 ± 0.051
DVKLLHSQFMKDLKDDS [YJL039C/NUP192] | 2.72 ± 0.075 | 2.85 ± 0.091 | 2.98 ± 0.077 | 2.72 ± 0.055
DVKVSISHDDLQAVAVA [FAS2] | 2.66 ± 0.076 | 2.6 ± 0.055 | 1.61 ± 0.065 | 2.22 ± 0.049
DVNALKFNNTQRESQIG [SNF12] | 2.31 ± 0.092 | 2.75 ± 0.067 | 2.68 ± 0.077 | 3.12 ± 0.063
DVNIVNRRLVYSRILKS [YCG1] | 1.36 ± 0.1 | 1.16 ± 0.079 | 1.38 ± 0.17 | 1.21 ± 0.059
DVSVKMGNTKVHCRISC [RRP45] | 2.21 ± 0.14 | 2.28 ± 0.092 | 2.17 ± 0.061 | 2.09 ± 0.074
DVVAHRQLAGAIGYEPL [DIS3] | 2.65 ± 0.074 | 2.43 ± 0.075 | 1.88 ± 0.15 | 2.19 ± 0.11
DVYASKVRLNASEREEL [PRP8] | 1.93 ± 0.062 | 2.22 ± 0.061 | 2.39 ± 0.072 | 1.78 ± 0.046
